In PMC11633749, “Identification of the Wnt signal peptide that directs secretion on extracellular vesicles” (Science Advances, 2024):

B1: exosome-binding peptide (EBP), 18-amino acid polypeptide of Wnt7a (240-257) (peptide)
peptide: PVRASRNKRPTFLKIKKP
notes: also called 18–amino acid EBP polypeptide
B2: EBP peptide K253A (peptide)
chain: PVRASRNKRPTFLAIKKP
B3: Wnt_(252–257) peptide (LKIKKP) (peptide)
peptide: LKIKKP
notes: also called C-terminal half of the polypeptide
B4: EBP peptide K256A (peptide)
chain: PVRASRNKRPTFLKIKAP

Tests used:
[1] = molecular target: T1, COPB2_(1–304), N-terminal WD repeat of COPB2 (S. cerevisiae, UniProt P41811 1-304); test: ITC; 450 μM of each peptide titrated into 20 μM COPB2 1-304; 25°C; 150 mM NaCl, 0.5 mM TCEP, 25 mM Hepes pH 7.5; one-site model; conditions: both partners purified
T1 construct: COPB2 (coatomer beta'), residues 1-304, N-terminal WD repeat domain; residues are counted in 'Saccharomyces cerevisiae COPB2 numbering'; PDB 2YNN (COPB2 1-304) served as search model; codon-optimised synthetic gene; also called WD-repeat domain of COPB2; source: E. coli BL21(DE3), purified (Ni-NTA, tag cleavage, ion exchange, SEC); not shown: 6xHis-Sumo3, N-terminal, cleaved
T1 sequence (looked up): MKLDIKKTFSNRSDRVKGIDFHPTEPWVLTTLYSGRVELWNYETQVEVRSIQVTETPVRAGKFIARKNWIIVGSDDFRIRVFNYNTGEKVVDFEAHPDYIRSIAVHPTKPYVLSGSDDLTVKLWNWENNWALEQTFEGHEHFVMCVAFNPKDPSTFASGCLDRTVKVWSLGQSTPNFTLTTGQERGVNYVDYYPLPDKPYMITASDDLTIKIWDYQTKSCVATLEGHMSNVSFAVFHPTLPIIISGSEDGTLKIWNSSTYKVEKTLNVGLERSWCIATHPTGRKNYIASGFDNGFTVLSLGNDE

[2] = molecular target: T2, COPB2_(1–304), N-terminal WD repeat of COPB2 (S. cerevisiae, UniProt P41811 1-304); test: ITC
T2 chain: T1 sequence (looked up)

Row | Kd [1] | Kd [2] | Binder
1 | 11.6 µM | – | B1
2 | – | 47.2 µM | B2
3 | 37.2 µM | – | B3
4 | – | 6 µM | B4
